Results: patent publication US20170306033A1 (Amgen, published 2017)

T1: human PAC1 receptor (human, UniProt P41586 21-468)
T1 sequence: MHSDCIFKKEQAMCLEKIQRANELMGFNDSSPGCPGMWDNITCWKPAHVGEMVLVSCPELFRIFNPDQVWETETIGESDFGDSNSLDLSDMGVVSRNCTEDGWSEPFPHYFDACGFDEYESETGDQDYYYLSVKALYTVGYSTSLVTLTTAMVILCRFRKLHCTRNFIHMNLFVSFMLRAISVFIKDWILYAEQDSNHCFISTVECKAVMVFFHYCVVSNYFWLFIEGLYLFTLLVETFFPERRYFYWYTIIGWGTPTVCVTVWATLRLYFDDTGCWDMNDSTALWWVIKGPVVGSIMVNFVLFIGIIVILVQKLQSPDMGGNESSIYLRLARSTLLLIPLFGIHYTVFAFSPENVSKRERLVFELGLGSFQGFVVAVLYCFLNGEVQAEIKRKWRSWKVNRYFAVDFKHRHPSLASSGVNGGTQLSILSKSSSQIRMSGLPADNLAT


Columns and labels:
[1] = biological target: human CGRP receptor (human, UniProt Q16602 23-461; O60894 27-148); experiment: cell-based or functional assay
[2] = biological target: T1, human PAC1 receptor; experiment: cell-based or functional assay

Sequence of human CGRP receptor (Q16602 23-461 limits assumed, chain 1 of 2): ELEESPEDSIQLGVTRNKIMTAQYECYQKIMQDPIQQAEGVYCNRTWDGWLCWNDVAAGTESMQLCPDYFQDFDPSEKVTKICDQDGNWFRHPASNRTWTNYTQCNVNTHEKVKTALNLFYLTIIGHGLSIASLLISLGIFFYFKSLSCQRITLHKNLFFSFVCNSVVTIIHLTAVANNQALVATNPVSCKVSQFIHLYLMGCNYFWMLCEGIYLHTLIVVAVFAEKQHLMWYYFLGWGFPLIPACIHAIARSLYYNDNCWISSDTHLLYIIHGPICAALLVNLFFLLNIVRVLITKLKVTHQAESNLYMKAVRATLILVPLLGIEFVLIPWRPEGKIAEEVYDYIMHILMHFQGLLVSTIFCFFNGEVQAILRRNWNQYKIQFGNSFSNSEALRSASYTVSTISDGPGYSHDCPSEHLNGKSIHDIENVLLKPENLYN
Sequence of human CGRP receptor (O60894 27-148 limits assumed, chain 2 of 2): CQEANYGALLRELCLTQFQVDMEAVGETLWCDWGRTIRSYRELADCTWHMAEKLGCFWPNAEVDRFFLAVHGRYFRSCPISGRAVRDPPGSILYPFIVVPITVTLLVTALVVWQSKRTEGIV

| Binder | % inhibition of human CGRPR [1] | % inhibition of human PAC1 [2] |
| --- | --- | --- |
| iPS:327697 (bispecific antibody, human IgG1, kappa, lambda, N297G) light 1: DIQLTQSPSFLSASVGDRVTITCRASQSIGRSLHWYQQKPGKAPKLLIKYASQSLSGVPSRFSGSGSGTEFTLTISSLQPEDFATYYCHQSSRLPFTFGEGTKVDIKRTVAAPSVFIFPPSDEQLKSGTASVVCLLNNFYPREAKVQWKVDNALQSGNSQESVTEQDSKDSTYSLESTLTLSKADYEKHKVYACEVTHQGLSSPVTKSFNRGEC heavy 1: not shown light 2: QSVLTQPPSVSAAPGQKVTISCSGSSSNIGNNYVSWYQQLPGTAPKLLIYDNNKRPSGIPDRFSGSKSGTSTTLGITGLQTGDEADYYCGTWDSRLSAVVFGKGTKLTVLGQPKANPTVTLFPPSSEELQANKATLVCLISDFYPGAVTVAWKADGSPVKAGVETTKPSKQSNNKYAAKSYLSLTPEQWKSHRSYSCQVTHEGSTVEKTVAPTECS heavy 2: QVQLVESGGGVVQPGRSLRLSCAASGFTFSSFGMHWVRQAPGKELEWVAVISFDGSIKYSVDSVKGRFTISRDNSKNTLFLQMNSLRAEDTAVYYCARDRLNYYESSGYYHYKYYGMAVWGQGTTVTVSSASTKGPSVFPLAPSSKSTSGGTAALGCLVKDYFPEPVTVSWNSGALTSGVHTFPAVLQSSGLYSLESVVTVPSSSLGTQTYICNVNHKPSNTKVDKKVEPKSCDKTHTCPPCPAPELLGGPSVFLFPPKPKDTLMISRTPEVTCVVVDVSHEDPEVKFNWYVDGVEVHNAKTKPCEEQYGSTYRCVSVLTVLHQDWLNGKEYKCKVSNKALPAPIEKTISKAKGQPREPQVYTLPPSRKEMTKNQVSLTCLVKGFYPSDIAVEWESNGQPENNYKTTPPVLKSDGSFFLYSKLTVDKSRWQQGNVFSCSVMHEALHNHYTQKSLSLSPGK | 88% | 39% |
| iPS:327708 (bispecific antibody, human IgG1, kappa, lambda, N297G) light 1: not shown heavy 1: not shown light 2: QSVLTQPPSVSAAPGQKVTISCSGSSSNIGNNYVSWYQQLPGTAPKLLIYDNNKRPSGIPDRFSGSKSGTSATLGITGLQTGDEADYYCGTWDSRLSAVVFGKGTKLTVLGQPKANPTVTLFPPSSEELQANKATLVCLISDFYPGAVTVAWKADGSPVKAGVETTKPSKQSNNKYAAKSYLSLTPEQWKSHRSYSCQVTHEGSTVEKTVAPTECS heavy 2: QVQLVESGGGVVQPGRSLRLSCAASGFTFSSFGMHWVRQAPGKELEWVAVISFDGSIKYSVDSVKGRFTISRDNSKNTLFLQMNSLRAEDTAVYYCARDRLNYYDSSGYYHYKYYGMAVWGQGTTVTVSSASTKGPSVFPLAPSSKSTSGGTAALGCLVKDYFPEPVTVSWNSGALTSGVHTFPAVLQSSGLYSLESVVTVPSSSLGTQTYICNVNHKPSNTKVDKKVEPKSCDKTHTCPPCPAPELLGGPSVFLFPPKPKDTLMISRTPEVTCVVVDVSHEDPEVKFNWYVDGVEVHNAKTKPCEEQYGSTYRCVSVLTVLHQDWLNGKEYKCKVSNKALPAPIEKTISKAKGQPREPQVYTLPPSRKEMTKNQVSLTCLVKGFYPSDIAVEWESNGQPENNYKTTPPVLKSDGSFFLYSKLTVDKSRWQQGNVFSCSVMHEALHNHYTQKSLSLSPGK | 79% | 18% |
| iPS:327698 (bispecific antibody, human IgG1, kappa, lambda, N297G) light 1: EIVLTQSPATLSLSPGERATLSCRASQSVGRSLHWYQQKPGQAPRLLIKYASQSLSGIPARFSGSGSGTDFTLTISSLEPEDFAVYYCHQSSRLPFTFGEGTKVDIKRTVAAPSVFIFPPSDEQLKSGTASVVCLLNNFYPREAKVQWKVDNALQSGNSQESVTEQDSKDSTYSLESTLTLSKADYEKHKVYACEVTHQGLSSPVTKSFNRGEC heavy 1: not shown light 2: QSVLTQPPSVSAAPGQKVTISCSGSSSNIGNNYVSWYQQLPGTAPKLLIYDNNKRPSGIPDRFSGSKSGTSTTLGITGLQTGDEADYYCGTWDSRLSAVVFGKGTKLTVLGQPKANPTVTLFPPSSEELQANKATLVCLISDFYPGAVTVAWKADGSPVKAGVETTKPSKQSNNKYAAKSYLSLTPEQWKSHRSYSCQVTHEGSTVEKTVAPTECS heavy 2: QVQLVESGGGVVQPGRSLRLSCAASGFTFSSFGMHWVRQAPGKELEWVAVISFDGSIKYSVDSVKGRFTISRDNSKNTLFLQMNSLRAEDTAVYYCARDRLNYYESSGYYHYKYYGMAVWGQGTTVTVSSASTKGPSVFPLAPSSKSTSGGTAALGCLVKDYFPEPVTVSWNSGALTSGVHTFPAVLQSSGLYSLESVVTVPSSSLGTQTYICNVNHKPSNTKVDKKVEPKSCDKTHTCPPCPAPELLGGPSVFLFPPKPKDTLMISRTPEVTCVVVDVSHEDPEVKFNWYVDGVEVHNAKTKPCEEQYGSTYRCVSVLTVLHQDWLNGKEYKCKVSNKALPAPIEKTISKAKGQPREPQVYTLPPSRKEMTKNQVSLTCLVKGFYPSDIAVEWESNGQPENNYKTTPPVLKSDGSFFLYSKLTVDKSRWQQGNVFSCSVMHEALHNHYTQKSLSLSPGK | 90% | 96% |

Further lines, results first:

| % inhibition of human CGRPR [1] | % inhibition of human PAC1 [2] | Binder |
| --- | --- | --- |
| 66% | 43% | iPS:326634 (bispecific antibody, human IgG2, kappa, lambda) light 1: DIQLTQSPSFLSASVGDRVTITCRASQSIGRSLHWYQQKPGKAPKLLIKYASQSLSGVPSRFSGSGSGTEFTLTISSLQPEDFATYYCHQSSRLPFTFGPGTKVDIKRTVAAPSVFIFPPSDEQLKSGTASVVCLLNNFYPREAKVQWKVDNALQSGNSQESVTEQDSKDSTYSLESTLTLSKADYEKHKVYACEVTHQGLSSPVTKSFNRGEC heavy 1: QVQLVESGAEVVKPGASVKVSCKASGFTFSRFAMHWVRQAPGQGLEWMGVISYDGGNKYYAESVKGRVTMTRDTSTSTLYMELSSLRSEDTAVYYCARGYDVLTGYPDYWGQGTLVTVSSASTKGPSVFPLAPCSRSTSESTAALGCLVKDYFPEPVTVSWNSGALTSGVHTFPAVLQSSGLYSLKSVVTVPSSNFGTQTYTCNVDHKPSNTKVDKTVERKCCVECPPCPAPPVAGPSVFLFPPKPKDTLMISRTPEVTCVVVDVSHEDPEVQFNWYVDGVEVHNAKTKPREEQFNSTFRVVSVLTVVHQDWLNGKEYKCKVSNKGLPAPIEKTISKTKGQPREPQVYTLPPSREEMTKNQVSLTCLVDGFYPSDIAVEWESNGQPENNYDTTPPMLDSDGSFFLYSDLTVDKSRWQQGNVFSCSVMHEALHNHYTQKSLSLSPGK light 2: not shown heavy 2: not shown |
| 73% | 72% | iPS:327707 (bispecific antibody, human IgG1, kappa, lambda, N297G) light 1: DIQMTQSPSSLSASVGDRITITCRASQSISRYLNWYQQKPGKAPKLLIYAASSLQSGIPSRFSGSGSGTDFTLTINSLQPEDFATYFCQQSYSPPFTFGEGTKVDIKRTVAAPSVFIFPPSDEQLKSGTASVVCLLNNFYPREAKVQWKVDNALQSGNSQESVTEQDSKDSTYSLESTLTLSKADYEKHKVYACEVTHQGLSSPVTKSFNRGEC heavy 1: not shown light 2: QSVLTQPPSVSAAPGQKVTISCSGSSSNIGNNYVSWYQQLPGTAPKLLIYDNNKRPSGIPDRFSGSKSGTSATLGITGLQTGDEADYYCGTWDSRLSAVVFGKGTKLTVLGQPKANPTVTLFPPSSEELQANKATLVCLISDFYPGAVTVAWKADGSPVKAGVETTKPSKQSNNKYAAKSYLSLTPEQWKSHRSYSCQVTHEGSTVEKTVAPTECS heavy 2: QVQLVESGGGVVQPGRSLRLSCAASGFTFSSFGMHWVRQAPGKELEWVAVISFDGSIKYSVDSVKGRFTISRDNSKNTLFLQMNSLRAEDTAVYYCARDRLNYYDSSGYYHYKYYGMAVWGQGTTVTVSSASTKGPSVFPLAPSSKSTSGGTAALGCLVKDYFPEPVTVSWNSGALTSGVHTFPAVLQSSGLYSLESVVTVPSSSLGTQTYICNVNHKPSNTKVDKKVEPKSCDKTHTCPPCPAPELLGGPSVFLFPPKPKDTLMISRTPEVTCVVVDVSHEDPEVKFNWYVDGVEVHNAKTKPCEEQYGSTYRCVSVLTVLHQDWLNGKEYKCKVSNKALPAPIEKTISKAKGQPREPQVYTLPPSRKEMTKNQVSLTCLVKGFYPSDIAVEWESNGQPENNYKTTPPVLKSDGSFFLYSKLTVDKSRWQQGNVFSCSVMHEALHNHYTQKSLSLSPGK |
